T1: papain (UniProt P00784 134-345)
T1 construct: source: bought: Sigma
T1 sequence (looked up): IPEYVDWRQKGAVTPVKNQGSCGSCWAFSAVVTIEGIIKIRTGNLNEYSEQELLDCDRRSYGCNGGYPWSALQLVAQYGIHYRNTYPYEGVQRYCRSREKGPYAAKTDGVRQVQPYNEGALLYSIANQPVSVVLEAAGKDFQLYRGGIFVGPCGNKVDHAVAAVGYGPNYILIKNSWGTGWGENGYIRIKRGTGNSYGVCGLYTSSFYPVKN

B1: chagasin ΔT31–T32 (devoid of residues T31 and T32) (natural protein)
chain: MSHKVTKAHNGATLTVAVGELVEIQLPSNPGFAWYFEGGTKESPNESMFTVENKYFPPDSKLLGAGGTEHFHVTVKAAGTHAVNLTYMRPWTGPSHDSERFTVYLKAN
notes: source: E. coli M15/pRep4, purified (Ni metal chelate column, HQ ion exchange)
B2: chagasin (recombinant His-tagged wild type) (natural protein)
chain: MSHKVTKAHNGATLTVAVGELVEIQLPSNPTTGFAWYFEGGTKESPNESMFTVENKYFPPDSKLLGAGGTEHFHVTVKAAGTHAVNLTYMRPWTGPSHDSERFTVYLKAN
notes: also called WT; wild type chagasin; source: E. coli M15/pRep4, purified (Ni metal chelate column, HQ ion exchange)
B3: chagasin T32E (natural protein)
chain: MSHKVTKAHNGATLTVAVGELVEIQLPSNPTEGFAWYFEGGTKESPNESMFTVENKYFPPDSKLLGAGGTEHFHVTVKAAGTHAVNLTYMRPWTGPSHDSERFTVYLKAN
notes: pQE30 construct as m1; also called pGL1197; source: E. coli M15/pRep4, purified (Ni metal chelate column, HQ ion exchange)
B4: chagasin T32S (natural protein)
chain: MSHKVTKAHNGATLTVAVGELVEIQLPSNPTSGFAWYFEGGTKESPNESMFTVENKYFPPDSKLLGAGGTEHFHVTVKAAGTHAVNLTYMRPWTGPSHDSERFTVYLKAN
notes: pQE30 construct as m1; also called pGL1195; source: E. coli M15/pRep4, purified (Ni metal chelate column, HQ ion exchange)
B5: chagasin T31Y (natural protein)
chain: MSHKVTKAHNGATLTVAVGELVEIQLPSNPYTGFAWYFEGGTKESPNESMFTVENKYFPPDSKLLGAGGTEHFHVTVKAAGTHAVNLTYMRPWTGPSHDSERFTVYLKAN
notes: pQE30 construct as m1; also called pGL1210; source: E. coli M15/pRep4, purified (Ni metal chelate column, HQ ion exchange)
B6: chagasin W93A (natural protein)
chain: MSHKVTKAHNGATLTVAVGELVEIQLPSNPTTGFAWYFEGGTKESPNESMFTVENKYFPPDSKLLGAGGTEHFHVTVKAAGTHAVNLTYMRPATGPSHDSERFTVYLKAN
notes: pQE30 construct as m1; also called pGL1199; source: E. coli M15/pRep4, purified (Ni metal chelate column, HQ ion exchange)
B7: chagasin T32A (natural protein)
chain: MSHKVTKAHNGATLTVAVGELVEIQLPSNPTAGFAWYFEGGTKESPNESMFTVENKYFPPDSKLLGAGGTEHFHVTVKAAGTHAVNLTYMRPWTGPSHDSERFTVYLKAN
notes: pQE30 construct as m1; also called pGL1211; source: E. coli M15/pRep4, purified (Ni metal chelate column, HQ ion exchange)
B8: chagasin T32V (natural protein)
chain: MSHKVTKAHNGATLTVAVGELVEIQLPSNPTVGFAWYFEGGTKESPNESMFTVENKYFPPDSKLLGAGGTEHFHVTVKAAGTHAVNLTYMRPWTGPSHDSERFTVYLKAN
notes: pQE30 construct as m1; also called pGL1196; source: E. coli M15/pRep4, purified (Ni metal chelate column, HQ ion exchange)
B9: chagasin T32Y (natural protein)
chain: MSHKVTKAHNGATLTVAVGELVEIQLPSNPTYGFAWYFEGGTKESPNESMFTVENKYFPPDSKLLGAGGTEHFHVTVKAAGTHAVNLTYMRPWTGPSHDSERFTVYLKAN
notes: pQE30 construct as m1; also called pGL1198; source: E. coli M15/pRep4, purified (Ni metal chelate column, HQ ion exchange)
B10: chagasin T31A/T32A double mutant (natural protein)
chain: MSHKVTKAHNGATLTVAVGELVEIQLPSNPAAGFAWYFEGGTKESPNESMFTVENKYFPPDSKLLGAGGTEHFHVTVKAAGTHAVNLTYMRPWTGPSHDSERFTVYLKAN
notes: pQE30 construct as m1; also called pGL1258; source: E. coli M15/pRep4, purified (Ni metal chelate column, HQ ion exchange)
B11: chagasin P30A (natural protein)
chain: MSHKVTKAHNGATLTVAVGELVEIQLPSNATTGFAWYFEGGTKESPNESMFTVENKYFPPDSKLLGAGGTEHFHVTVKAAGTHAVNLTYMRPWTGPSHDSERFTVYLKAN
notes: pQE30 construct as m1; also called pGL1194; source: E. coli M15/pRep4, purified (Ni metal chelate column, HQ ion exchange)
B12: chagasin T31A (natural protein)
chain: MSHKVTKAHNGATLTVAVGELVEIQLPSNPATGFAWYFEGGTKESPNESMFTVENKYFPPDSKLLGAGGTEHFHVTVKAAGTHAVNLTYMRPWTGPSHDSERFTVYLKAN
notes: pQE30 construct as m1; also called pGL1209; source: E. coli M15/pRep4, purified (Ni metal chelate column, HQ ion exchange)
B13: chagasin T31S (natural protein)
chain: MSHKVTKAHNGATLTVAVGELVEIQLPSNPSTGFAWYFEGGTKESPNESMFTVENKYFPPDSKLLGAGGTEHFHVTVKAAGTHAVNLTYMRPWTGPSHDSERFTVYLKAN
notes: pQE30 construct as m1; also called pGL1299; source: E. coli M15/pRep4, purified (Ni metal chelate column, HQ ion exchange)
B14: chagasin Y89S (natural protein)
chain: MSHKVTKAHNGATLTVAVGELVEIQLPSNPTTGFAWYFEGGTKESPNESMFTVENKYFPPDSKLLGAGGTEHFHVTVKAAGTHAVNLTSMRPWTGPSHDSERFTVYLKAN
notes: pQE30 construct as m1; also called pGL1120; source: E. coli M15/pRep4, purified (Ni metal chelate column, HQ ion exchange)
B15: chagasin T31V (natural protein)
chain: MSHKVTKAHNGATLTVAVGELVEIQLPSNPVTGFAWYFEGGTKESPNESMFTVENKYFPPDSKLLGAGGTEHFHVTVKAAGTHAVNLTYMRPWTGPSHDSERFTVYLKAN
notes: pQE30 construct as m1; also called pGL1298; source: E. coli M15/pRep4, purified (Ni metal chelate column, HQ ion exchange)
B16: chagasin Y89F (natural protein)
chain: MSHKVTKAHNGATLTVAVGELVEIQLPSNPTTGFAWYFEGGTKESPNESMFTVENKYFPPDSKLLGAGGTEHFHVTVKAAGTHAVNLTFMRPWTGPSHDSERFTVYLKAN
notes: pQE30 construct as m1; also called pGL1119; source: E. coli M15/pRep4, purified (Ni metal chelate column, HQ ion exchange)

Biological target: T2, cruzipain (Trypanosoma cruzi, UniProt P25779 123-467)
T2 construct: also called T. cruzi CP cruzipain; major cysteine peptidase of T. cruzi
Test: enzyme inhibition kinetics (Ki for tight-binding inhibitors); peptidase incubated with different chagasin concentrations for 15 min at room temperature, residual hydrolysis of 5 μM Z-Phe-Arg-MCA; Ki from Kiapp with KM 1.5, 2.5 and 60 μM for cruzipain, cathepsin L and papain; methods: RB buffer (50 mM Na2PO4, pH 6.5, 200 mM NaCl, 5 mM EDTA, 2.5 mM DTT), 25 °C; footnote of Table 2: 50 mM Na2HPO4, 100 mM NaCl, 5 mM …
Settings: both partners purified

In order of rising Ki:
1. B2  0.0076 nM
2. B3  0.011 nM
3. B13  0.011 nM
4. B7  0.016 nM
5. B9  0.016 nM
6. B4  0.02 nM
7. B11  0.02 nM
8. B16  0.02 nM
9. B14  0.025 nM
10. B6  0.031 nM
11. B15  0.07 nM
12. B8  0.193 nM
13. B12  0.317 nM
14. B5  0.747 nM
15. B10  1.06 nM
16. B1  5.87 nM

Biological target: T1, papain
Test: as above
Settings: both partners purified

In order of falling Ki:
1. B14  0.316 ± 0.017 nM
2. B10  0.027 ± 0.0015 nM
3. B2  0.005 ± 0.0007 nM

B16: binds.

Biological target: human cathepsin L (human)
Test: enzyme inhibition kinetics (Ki for tight-binding inhibitors); peptidase incubated with different chagasin concentrations for 15 min at room temperature, residual hydrolysis of 5 μM Z-Phe-Arg-MCA; Ki from Kiapp with KM 1.5, 2.5 and 60 μM for cruzipain, cathepsin L and papain; methods: RB buffer (50 mM Na2PO4, pH 6.5, 200 mM NaCl, 5 mM EDTA, 2.5 mM DTT), 25 °C; footnote of Table 2: 50 mM Na2HPO4, 100 mM NaCl, 5 mM EDTA, pH 6.5, 5% DMSO, 2.5 mM DTT, 28 °C
Settings: not given

In order of rising Ki:
1. chagasin T31A/T32A double mutant (from UniProt Q966X9 1-110) (natural protein)  0.0018 nM
2. chagasin T32Y (from UniProt Q966X9 1-110) (natural protein)  0.0027 nM
3. chagasin T31A (from UniProt Q966X9 1-110) (natural protein)  0.0039 nM
4. chagasin T31S (from UniProt Q966X9 1-110) (natural protein)  0.0049 nM
5. chagasin T31Y (from UniProt Q966X9 1-110) (natural protein)  0.0068 nM
6. B2  0.0073 nM
7. chagasin T31V (from UniProt Q966X9 1-110) (natural protein)  0.0097 nM
8. chagasin T32A (from UniProt Q966X9 1-110) (natural protein)  0.014 nM
9. chagasin T32V (from UniProt Q966X9 1-110) (natural protein)  0.02 nM
10. chagasin T32S (from UniProt Q966X9 1-110) (natural protein)  0.032 nM
11. chagasin P30A (from UniProt Q966X9 1-110) (natural protein)  0.045 nM
12. chagasin W93A (from UniProt Q966X9 1-110) (natural protein)  0.825 nM
13. chagasin ΔT31–T32 (devoid of residues T31 and T32) (from UniProt Q966X9 1-110) (natural protein)  2.2 nM

From article PMC2607524, “The role of conserved residues of chagasin in the inhibition of cysteine peptidases” (Febs Letters, 2008)
